The source of these data is the supplement of paper PMC10126150.

± gives the standard deviation of the averaged measurements.
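Also: ATP exposure 15 min at 22 °C before imaging.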

The subject of the data set is ATP. Nature of the data set: switch fluorescence ratio, 500 uM ATP over buffer (Cy3 cluster intensity, sum of 5 cycles each) (fold (ratio)); higher = stronger signal-on switching upon ATP binding; sequences stand for … in TCGTCGGCAGCGTCAGATGTGTATAAGAGACAGTTTTTTTTTTTTTTTTTTTTTTTTT…TC. The settings on record: aptamer strand: ATP DNA aptamer (quencher-CACCTGGGGGAGTATTGCGGAGGAAGG + anchor), 100 nM annealed; ATP concentration: 500 uM. In a few lines: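 Values give the fluorescence ratio for each switch-domain sequence, averaged from per-cluster ratios of summed target-cycle to summed buffer-cycle Cy3 intensity. The Cy3-labelled switching-strand clusters sat on a modified Illumina MiSeq flow-cell, were annealed to 100 nM quencher-labelled ATP aptamer, and were imaged in selection buffer, then after 15 min with 500 uM ATP at 22 °C. Five cycles ran with NaOH stripping and re-annealing between them, and clusters outside 100-1000 RFU were excluded.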
Consider TATTAACCTT, for which the switch fluorescence ratio was 1.6415 ± 0.00013.

ACCGAGGAGG: the switch fluorescence ratio is 0.961 ± 0.026.

Regarding GGGGGTGCGA, the switch fluorescence ratio is 1.01 ± 0.026.

On to TGACATCGGG, for which the switch fluorescence ratio came out at 1.01 ± 0.033.

Regarding CAGGGGTTTT, the switch fluorescence ratio was 1.32 ± 0.54.

Turning to AAAATTGGGC, the switch fluorescence ratio was 1.08 ± 0.02.

As for GTGGGTTATT, the switch fluorescence ratio came to 0.999 ± 0.016.

Regarding TTTTTTCTTA, the switch fluorescence ratio was determined as 0.995 ± 0.023.

Consider ATTAATCGGC, for which the switch fluorescence ratio came out at 0.9735 ± 0.0033.

For the sequence GAAAAAGCCG, the switch fluorescence ratio was 1.014 ± 0.0078.

Take GGGGAATGGT: the switch fluorescence ratio was 1.01 ± 0.074.

Take ATGCATTGGA: the switch fluorescence ratio is 1.01 ± 0.029.

On to GCAATTTGGT, for which the switch fluorescence ratio turned out to be 1.03 ± 0.02.

In the case of TTGTTTGGAC, the switch fluorescence ratio is 1.03 ± 0.013.

Turning to TACTTAGCCC, the switch fluorescence ratio amounted to 1.07 ± 0.022.

As to CAGGCGTTAG, the switch fluorescence ratio was determined as 1 ± 0.064.

Take GGGAGTCCCA: the switch fluorescence ratio is 0.9973 ± 0.0078.

Turning to AGTGGGTTTC, the switch fluorescence ratio stood at 0.9697 ± 0.0026.

As to GACTTGGTGC, the switch fluorescence ratio amounted to 1.06 ± 0.023.

Consider TTTTCTTAGA, for which the switch fluorescence ratio came to 0.977 ± 0.029.

As to AGGGTTAACA, the switch fluorescence ratio was 1.01 ± 0.016.

Regarding GGGGCATCTT, the switch fluorescence ratio was found to be 1.01 ± 0.046.

Take GCTGGGAATT: the switch fluorescence ratio amounted to 1 ± 0.016.

Regarding AGCGGTAGGG, the switch fluorescence ratio is 1.022 ± 0.0082.

For the sequence GTGTTTAGTG, the switch fluorescence ratio turned out to be 0.9787 ± 0.0029.

For GGTCGGACGT, the switch fluorescence ratio came to 0.992 ± 0.086.

As to GGGGGGATAA, the switch fluorescence ratio was determined as 1.08 ± 0.21.

Turning to CAAACTTTGG, the switch fluorescence ratio was 1.006 ± 0.0077.

On to TTTCGTGGGA, for which the switch fluorescence ratio was 0.999 ± 0.04.

As for TAATGAGTTA, the switch fluorescence ratio is 0.9658 ± 0.0012.

On to TTACGTTCTT, for which the switch fluorescence ratio worked out at 1.048 ± 0.0096.

Consider TTATTAGTAT, for which the switch fluorescence ratio turned out to be 1.02 ± 0.016.

With CATGATTAAT, the switch fluorescence ratio came out at 0.962 ± 0.033.

AATTGCTTGT: the switch fluorescence ratio was 0.978 ± 0.02.

As for TTAAAGCTTA, the switch fluorescence ratio amounted to 1.02 ± 0.04.

With CGAACCTTCG, the switch fluorescence ratio came to 2.35 ± 0.092.

With GCCTTAGGTG, the switch fluorescence ratio was determined as 1.4 ± 0.12.

For the sequence AAAGAAGGTA, the switch fluorescence ratio was determined as 1 ± 0.026.

With TGTTTTGGGT, the switch fluorescence ratio is 0.985 ± 0.039.

Take CGCATAGTTG: the switch fluorescence ratio stood at 1.06 ± 0.024.

In the case of GGGGAGTCGG, the switch fluorescence ratio stood at 1.01 ± 0.047.

On to TGGGAATCAC, for which the switch fluorescence ratio turned out to be 1.05 ± 0.017.

On to ATGTGGTTAC, for which the switch fluorescence ratio turned out to be 1.01 ± 0.048.

Regarding GCTGTGTGGC, the switch fluorescence ratio worked out at 1.01 ± 0.047.

As to GGGCTGTAAG, the switch fluorescence ratio amounted to 0.997 ± 0.04.

As to GCCGGGACTA, the switch fluorescence ratio was 1.01 ± 0.024.

With GTTAGTAGTG, the switch fluorescence ratio was found to be 0.952 ± 0.022.

With TGGGTGTCGC, the switch fluorescence ratio stood at 0.9672 ± 0.0039.

As for GCATTGTTTT, the switch fluorescence ratio stood at 0.96 ± 0.038.

Regarding GGGTTGTTCT, the switch fluorescence ratio amounted to 0.9792 ± 0.0087.

As to GTTACGAAAA, the switch fluorescence ratio came to 1 ± 0.056.

Take TTTATCTTGG: the switch fluorescence ratio was 1.02 ± 0.038.

As for TCGGTATGTG, the switch fluorescence ratio was found to be 1.03 ± 0.045.

On to CCCCAAGACG, for which the switch fluorescence ratio turned out to be 0.997 ± 0.011.

For GTGATTCAGG, the switch fluorescence ratio came out at 0.989 ± 0.029.

As for AGGTGGTGCT, the switch fluorescence ratio was 0.991 ± 0.056.

Take GCTTGTGTGA: the switch fluorescence ratio is 0.999 ± 0.01.

On to ATTAGGGTTC, for which the switch fluorescence ratio was 1.44 ± 0.47.

Consider TTTGATAGGA, for which the switch fluorescence ratio was found to be 0.975 ± 0.02.

CAATTATTAG: the switch fluorescence ratio came out at 0.988 ± 0.017.

Regarding CTGGGCCGGT, the switch fluorescence ratio is 1.02 ± 0.063.

Turning to TCGTAAAATT, the switch fluorescence ratio was determined as 0.986 ± 0.026.

Regarding AGGAAAATTT, the switch fluorescence ratio was 1 ± 0.047.

Consider TCGGGGGCGG, for which the switch fluorescence ratio worked out at 1.02 ± 0.078.

Take GGTTTGGATC: the switch fluorescence ratio stood at 1.02 ± 0.018.

As to TATTGGTTGT, the switch fluorescence ratio was determined as 0.999 ± 0.029.

With AAAGTAAAGT, the switch fluorescence ratio turned out to be 1.01 ± 0.028.

As to TTATGACAAC, the switch fluorescence ratio is 1.015 ± 0.0044.

Take TTATTCGATT: the switch fluorescence ratio came to 0.982 ± 0.019.

Regarding GTTATCAGTT, the switch fluorescence ratio stood at 0.99 ± 0.014.

TGCTCTAAGG: the switch fluorescence ratio is 1.02 ± 0.046.

GGGGACGTGG: the switch fluorescence ratio turned out to be 0.965 ± 0.011.

In the case of GGGGGACTAA, the switch fluorescence ratio stood at 0.996 ± 0.042.

In the case of CAGTGTGAAT, the switch fluorescence ratio was determined as 1 ± 0.021.

On to GAGGGTTTTA, for which the switch fluorescence ratio was 1 ± 0.016.

Regarding TCAATTTGGC, the switch fluorescence ratio turned out to be 1.02 ± 0.039.

As for ACTTTATCTT, the switch fluorescence ratio stood at 1.063 ± 0.01.

In the case of TATCTTTTCT, the switch fluorescence ratio was found to be 0.968 ± 0.014.

Take GCAGGGAGAG: the switch fluorescence ratio came to 0.964 ± 0.022.

In the case of TTTATATGTT, the switch fluorescence ratio stood at 1.03 ± 0.04.

Turning to TTTTCCACGA, the switch fluorescence ratio came out at 1.3 ± 0.35.

AAGGGGATT: the switch fluorescence ratio came out at 1.01 ± 0.027.

Turning to CAGATACAAG, the switch fluorescence ratio came to 1.036 ± 0.0095.

Consider TATAATGGCG, for which the switch fluorescence ratio amounted to 0.961 ± 0.04.

For the sequence GAAGTTTGTG, the switch fluorescence ratio came to 1.019 ± 0.0075.

For CGTCTGTCGG, the switch fluorescence ratio was found to be 1.03 ± 0.019.

As to ATCGTTTAAT, the switch fluorescence ratio was 0.9671 ± 0.003.

Consider AGGTTAGGGT, for which the switch fluorescence ratio turned out to be 0.969 ± 0.015.

Turning to GATTTCAAAC, the switch fluorescence ratio turned out to be 0.9817 ± 0.0045.

In the case of TAGGTCCCGG, the switch fluorescence ratio came out at 0.996 ± 0.032.

With GAACGAGGGG, the switch fluorescence ratio turned out to be 1.01 ± 0.019.

For AAATTGTCGT, the switch fluorescence ratio turned out to be 0.977 ± 0.042.

Turning to AGATACGAGG, the switch fluorescence ratio turned out to be 1.03 ± 0.011.

GTTAACTCCA: the switch fluorescence ratio was found to be 1.02 ± 0.022.

For the sequence TGGGAATAAT, the switch fluorescence ratio came out at 1.03 ± 0.031.

Take TTCGAAAAAT: the switch fluorescence ratio is 1.05 ± 0.064.

Turning to TGAAACTATT, the switch fluorescence ratio turned out to be 1.01 ± 0.027.

On to CCTATTTTTT, for which the switch fluorescence ratio was 1.01 ± 0.034.

For TTGGCCGCAC, the switch fluorescence ratio was found to be 2.67 ± 0.049.

With GTAAAAGCTC, the switch fluorescence ratio was determined as 1.02 ± 0.018.

On to TTGTGTGGGT, for which the switch fluorescence ratio was 0.993 ± 0.02.

Take TGGGACTGTA: the switch fluorescence ratio stood at 1.14 ± 0.073.

Turning to TGGGGATTAA, the switch fluorescence ratio was 0.991 ± 0.013.

As to ATAATAATGG, the switch fluorescence ratio was found to be 1 ± 0.037.

Consider GGGGTAGAAA, for which the switch fluorescence ratio worked out at 0.969 ± 0.013.

On to ATCTCTGGGT, for which the switch fluorescence ratio was determined as 1 ± 0.033.

Regarding AGTATGTCGA, the switch fluorescence ratio amounted to 1.01 ± 0.015.

Consider AGTACTGACC, for which the switch fluorescence ratio amounted to 1.23 ± 0.037.

On to GATCGGTAAA, for which the switch fluorescence ratio was 0.999 ± 0.013.

As to CGAGTCGGGA, the switch fluorescence ratio came out at 0.999 ± 0.021.

Regarding CGTTGGGTCC, the switch fluorescence ratio was 0.987 ± 0.029.

As to TTTATACCTT, the switch fluorescence ratio came to 1.07 ± 0.1.

Regarding AAATTCTGGG, the switch fluorescence ratio is 0.996 ± 0.0075.

On to GATGCAGTTT, for which the switch fluorescence ratio was found to be 1.03 ± 0.019.

As to ATCATTAGGA, the switch fluorescence ratio was 0.9922 ± 0.0046.

As to AATTAAAGTT, the switch fluorescence ratio amounted to 0.98603 ± 0.00086.

Regarding TAGCAGTGGG, the switch fluorescence ratio amounted to 0.973 ± 0.015.

In the case of CACTTGTGAC, the switch fluorescence ratio was 1 ± 0.016.

CGGTCTGCGA: the switch fluorescence ratio is 1.05 ± 0.013.

In the case of CGTCGACCGG, the switch fluorescence ratio worked out at 1 ± 0.022.
